Laboratory results taken from patent US20230242592A1, “IDENTIFICATION OF […] PEPTIDES AND USES THEREOF” (priority 2020, published 2023).
pKd: −log10 of the molar value.

How the values were obtained:
[1] = biological target: RBD-His (Sino Biological) (SARS-CoV-2) (UniProt P0DTC2); test: BLI (summary of the working examples)
[2] = biological target: RBD-His (Sino Biological) (SARS-CoV-2) (UniProt P0DTC2); test: BLI steady-state, CR3022 on anti-human IgG Fc tips, RBD-His as analyte

## neutralizing monoclonal IgG antibody against the SARS-CoV-2 spike glycoprotein (CR3022, antibodies-online)
[1]
  pKd: 8.22
[2]
  pKd: 8.07
